From publication PMC10530651, “Mechanisms of Regulation of the CHRDL1 Gene by the TWIST2 and ADD1/SREBP1c Transcription Factors”

Legend:
TWIST2 [1] = molecular target: T1, TWIST2 (Homo sapiens, UniProt Q8WVJ9 1-160); assay: EMSA; EMSA: 20 mM HEPES pH 7.9, 60 mM KCl, 1 mM MgCl2, 0.5 mM DTT, 10% glycerol, 10 µL with 1-3 µL TnT lysate; competitor at least 50x molar excess; 6% native gel, 0.5X TBE, 4 °C; binding temperature not stated; settings: protein: ivt; tags: N-terminal Myc; chain copies: 2; label: 32P as probe; blunt
T1 sequence: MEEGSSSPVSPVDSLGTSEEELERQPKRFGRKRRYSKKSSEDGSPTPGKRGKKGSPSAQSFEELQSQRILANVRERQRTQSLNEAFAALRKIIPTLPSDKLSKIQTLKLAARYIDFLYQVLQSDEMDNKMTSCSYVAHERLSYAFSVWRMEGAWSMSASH

ADD1/SREBP1c [2] = molecular target: T2, ADD1/SREBP1c (rat, UniProt P56720-1 1-403); assay: as above; settings: protein: ivt; tags: C-terminal Myc/His; chain copies: 2; label: 32P as probe; blunt
T2 sequence: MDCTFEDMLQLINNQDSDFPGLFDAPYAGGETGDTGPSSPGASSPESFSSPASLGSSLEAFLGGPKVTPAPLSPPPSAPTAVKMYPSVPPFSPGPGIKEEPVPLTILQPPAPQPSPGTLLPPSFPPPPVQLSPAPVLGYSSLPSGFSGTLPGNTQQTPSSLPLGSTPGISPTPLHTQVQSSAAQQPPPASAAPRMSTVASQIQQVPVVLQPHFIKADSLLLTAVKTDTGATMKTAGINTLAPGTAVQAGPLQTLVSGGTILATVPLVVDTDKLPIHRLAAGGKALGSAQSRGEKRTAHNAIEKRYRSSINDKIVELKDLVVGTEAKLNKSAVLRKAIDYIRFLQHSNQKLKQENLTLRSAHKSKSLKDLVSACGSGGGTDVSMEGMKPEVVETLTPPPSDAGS

ADD1/SREBP1c [3] = molecular target: T2, ADD1/SREBP1c; assay: competition; vs labeled CH2700EA; EMSA: 20 mM HEPES pH 7.9, 60 mM KCl, 1 mM MgCl2, 0.5 mM DTT, 10% glycerol, 10 µL with 1-3 µL TnT lysate; competitor at least 50x molar excess; 6% native gel, 0.5X TBE, 4 °C; binding temperature not stated; settings: protein: ivt; tags: C-terminal Myc/His; chain copies: 2; blunt
TWIST2 [4] = molecular target: T1, TWIST2; assay: as above; settings: protein: ivt; tags: N-terminal Myc; chain copies: 2; blunt
TWIST2 [5] = molecular target: T1, TWIST2; assay: competition; vs labeled probe #5; EMSA: 20 mM HEPES pH 7.9, 60 mM KCl, 1 mM MgCl2, 0.5 mM DTT, 10% glycerol, 10 µL with 1-3 µL TnT lysate; competitor at least 50x molar excess; 6% native gel, 0.5X TBE, 4 °C; binding temperature not stated; settings: protein: ivt; tags: N-terminal Myc; chain copies: 2; blunt
TWIST1 [6] = molecular target: T3, TWIST1 (Homo sapiens, UniProt Q15672 1-202); assay: as above; settings: protein: ivt; tags: Myc; chain copies: 2; blunt
TWIST2 [7] = molecular target: T1, TWIST2; assay: EMSA; competition; EMSA: 20 mM HEPES pH 7.9, 60 mM KCl, 1 mM MgCl2, 0.5 mM DTT, 10% glycerol, 10 µL with 1-3 µL TnT lysate; competitor at least 50x molar excess; 6% native gel, 0.5X TBE, 4 °C; binding temperature not stated; settings: protein: ivt; tags: N-terminal Myc; chain copies: 2; label: 32P as probe; blunt
ADD1/SREBP1c [8] = molecular target: T2, ADD1/SREBP1c; assay: as above; settings: protein: ivt; tags: C-terminal Myc/His; chain copies: 2; label: 32P as probe; blunt
TWIST1 [9] = molecular target: T3, TWIST1; assay: EMSA; EMSA: 20 mM HEPES pH 7.9, 60 mM KCl, 1 mM MgCl2, 0.5 mM DTT, 10% glycerol, 10 µL with 1-3 µL TnT lysate; competitor at least 50x molar excess; 6% native gel, 0.5X TBE, 4 °C; binding temperature not stated; settings: protein: ivt; tags: Myc; chain copies: 2; label: 32P as probe; blunt

B1: CH2700EA (dsDNA)
DNA 1: TGGTGGTGGTCACATGAATATACACATGCGATAAAATT
DNA 2: AATTTTATCGCATGTGTATATTCATGTGACCACCACCA
TWIST2 [1]
  binding result: binds
ADD1/SREBP1c [2]
  binding result: binds

B2: CH2700EWAM (dsDNA)
DNA 1: TGGTGGTGGTCACATGAATATACGCACGCGATAAAATT
DNA 2: AATTTTATCGCGTGCGTATATTCATGTGACCACCACCA
ADD1/SREBP1c [3]
  binding result: binds

B3: CH2700EMAW (dsDNA)
DNA 1: TGGTGGTGGTCGCACGAATATACACATGCGATAAAATT
DNA 2: AATTTTATCGCATGTGTATATTCGTGCGACCACCACCA
TWIST2 [4]
  binding result: binds
ADD1/SREBP1c [3]
  binding result: binds

B4: SP1 oligo (dsDNA)
DNA 1: ATTCGATCGGGGCGGGGCGAGC
DNA 2: GCTCGCCCCGCCCCGATCGAAT
TWIST2 [5]
  binding result: no binding
TWIST1 [6]
  binding result: no binding

B5: CH2600TWI (dsDNA)
DNA 1: TATATACACAGGCAAATGAGTGCATATAAA
DNA 2: TTTATATGCACTCATTTGCCTGTGTATATA
TWIST2 [7]
  binding result: no binding
ADD1/SREBP1c [8]
  binding result: no binding
TWIST1 [9]
  binding result: no binding
